Changes are numbered by the printed parent chain. Names and notes keep the numbering of the source.
B1: h10A11 (IGKV4-1/IGHV3-73 R50K): humanized 10A11 heavy chain CDR point mutant (antibody, V domains shown)
VL: DIVMTQSPDSLAVSLGERATINCRSSKSLLHSNGNTYLYWYQQKPGQPPKLLIYRMSNLASGVPDRFSGSGSGTDFTLTISSLQAEDVAVYYCMQHLEYPLTFGQGTKLEIKRT
VH: EVQLVESGGGLVQPGGSLKLSCAASGFAFNTYALYWVRQASGKGLEWVGKIRSKSNNYATYYADSVKDRFTISRDDSKNTAYLQMNSLKTEDTAVYYCTRARFYYSDYGYAMDYWGQGTLVTVSS
B2: h10A11 (IGKV4-1/IGHV3-73 Y100bF): humanized 10A11 heavy chain CDR point mutant (antibody, V domains shown)
VL: B1 VL
VH: B1 VH with K50R, Y108F
B3: h10A11 (IGKV4-1/IGHV3-73 V63L): humanized 10A11 heavy chain CDR point mutant (antibody, V domains shown)
VL: B1 VL
VH: B1 VH with K50R, V66L
B4: h10A11 (IGKV4-1/IGHV3-73 F97L): humanized 10A11 heavy chain CDR point mutant (antibody, V domains shown)
VL: B1 VL
VH: B1 VH with K50R, F103L
B5: h10A11 (IGKV4-1/IGHV3-73 T57S): humanized 10A11 heavy chain CDR point mutant (antibody, V domains shown)
VL: B1 VL
VH: B1 VH with K50R, T60S
B6: h10A11 (IGKV4-1/IGHV3-73 N53Q): humanized 10A11 heavy chain CDR point mutant (antibody, V domains shown)
VL: B1 VL
VH: B1 VH with K50R, N56Q
B7: h10A11 (IGKV4-1/IGHV3-73 R96K): humanized 10A11 heavy chain CDR point mutant (antibody, V domains shown)
VL: B1 VL
VH: B1 VH with K50R, R102K
B8: h10A11 (IGKV4-1/IGHV3-73 D100aE): humanized 10A11 heavy chain CDR point mutant (antibody, V domains shown)
VL: B1 VL
VH: B1 VH with K50R, D107E
B9: h10A11 (IGKV4-1/IGHV3-73 R52K): humanized 10A11 heavy chain CDR point mutant (antibody, V domains shown)
VL: B1 VL
VH: B1 VH with K50R, R52K
B10: h10A11 (IGKV4-1/IGHV3-73 S100T): humanized 10A11 heavy chain CDR point mutant (antibody, V domains shown)
VL: B1 VL
VH: B1 VH with K50R, S106T
B11: h10A11 (IGKV4-1/IGHV3-73 A100eV): humanized 10A11 heavy chain CDR point mutant (antibody, V domains shown)
VL: B1 VL
VH: B1 VH with K50R, A111V
B12: h10A11 (IGKV4-1/IGHV3-73 Y58F): humanized 10A11 heavy chain CDR point mutant (antibody, V domains shown)
VL: B1 VL
VH: B1 VH with K50R, Y61F
B13: h10A11 (IGKV4-1/IGHV3-73 Y55F): humanized 10A11 heavy chain CDR point mutant (antibody, V domains shown)
VL: B1 VL
VH: B1 VH with K50R, Y58F
B14: h10A11 (IGKV4-1/IGHV3-73 M100fL): humanized 10A11 heavy chain CDR point mutant (antibody, V domains shown)
VL: B1 VL
VH: B1 VH with K50R, M112L
B15: h10A11 (IGKV4-1/IGHV3-73 K64R): humanized 10A11 heavy chain CDR point mutant (antibody, V domains shown)
VL: B1 VL
VH: B1 VH with K50R, K67R
B16: h10A11 (IGKV4-1/IGHV3-73 I51L): humanized 10A11 heavy chain CDR point mutant (antibody, V domains shown)
VL: B1 VL
VH: B1 VH with K50R, I51L
B17: h10A11 (IGKV4-1/IGHV3-73 K52bR): humanized 10A11 heavy chain CDR point mutant (antibody, V domains shown)
VL: B1 VL
VH: B1 VH with K50R, K54R
B18: h10A11 (IGKV4-1/IGHV3-73 A56V): humanized 10A11 heavy chain CDR point mutant (antibody, V domains shown)
VL: B1 VL
VH: B1 VH with K50R, A59V
B19: h10A11 (IGKV4-1/IGHV3-73 G100cA): humanized 10A11 heavy chain CDR point mutant (antibody, V domains shown)
VL: B1 VL
VH: B1 VH with K50R, G109A
B20: h10A11 (IGKV4-1/IGHV3-73 A60V): humanized 10A11 heavy chain CDR point mutant (antibody, V domains shown)
VL: B1 VL
VH: B1 VH with K50R, A63V
B21: h10A11 (IGKV4-1/IGHV3-73 S52cT): humanized 10A11 heavy chain CDR point mutant (antibody, V domains shown)
VL: B1 VL
VH: B1 VH with K50R, S55T
B22: h10A11 (IGKV4-1/IGHV3-73 Y59F): humanized 10A11 heavy chain CDR point mutant (antibody, V domains shown)
VL: B1 VL
VH: B1 VH with K50R, Y62F
B23: h10A11 (IGKV4-1/IGHV3-73 S52aT): humanized 10A11 heavy chain CDR point mutant (antibody, V domains shown)
VL: B1 VL
VH: B1 VH with K50R, S53T
B24: h10A11 (IGKV4-1/IGHV3-73 D65E): humanized 10A11 heavy chain CDR point mutant (antibody, V domains shown)
VL: B1 VL
VH: B1 VH with K50R, D68E
B25: h10A11 (IGKV4-1/IGHV3-73 Y99F): humanized 10A11 heavy chain CDR point mutant (antibody, V domains shown)
VL: B1 VL
VH: B1 VH with K50R, Y105F
B26: h10A11 (IGKV4-1/IGHV3-73 Y100dF): humanized 10A11 heavy chain CDR point mutant (antibody, V domains shown)
VL: B1 VL
VH: B1 VH with K50R, Y110F
B27: h10A11 (IGKV4-1/IGHV3-73 S62T): humanized 10A11 heavy chain CDR point mutant (antibody, V domains shown)
VL: B1 VL
VH: B1 VH with K50R, S65T
B28: h10A11 (IGKV4-1/IGHV3-73 Y98F): humanized 10A11 heavy chain CDR point mutant (antibody, V domains shown)
VL: B1 VL
VH: B1 VH with K50R, Y104F
B29: h10A11 (IGKV4-1/IGHV3-73 D61E): humanized 10A11 heavy chain CDR point mutant (antibody, V domains shown)
VL: B1 VL
VH: B1 VH with K50R, D64E

The molecules below were run against T1, human CCR8 (Homo sapiens, UniProt P51685) (assay: Neutralizing activity: inhibition of Ca2+ influx by 200 nM hCCL1 in human CCR8 expressing 293 cells (FLIPR), Test Example 6). Conditions: Table 9; WT IC50/mutant IC50; humanized 10A11 heavy chain CDR mutants, IGKV4-1/IGHV3-73.
T1 construct: expressed in transfected cells; host or cells: 293 cells
Format: cell-based
Method: The antibody dilution diluted with a medium was added to human CCR8 expressing 293 cells in which a Ca^2+ indicator was incorporated beforehand, and Ca^2+ influx by addition of 200 nM hCCL1 (manufactured by BioLegend) was measured with FLIPR. […] The evaluation was performed at least three times, and IC50 was expressed as average±SD.

In order of rising IC50 ratio:
1. B6  0.03
2. B22  0.03
3. B19  0.07
4. B28  0.07
5. B1  0.12
6. B16  0.22
7. B23  0.22
8. B29  0.25
9. B8  0.30
10. B13  0.47
11. B17  0.47
12. B5  0.49
13. B11  0.49
14. B12  0.50
15. B21  0.53
16. B15  0.54
17. B18  0.55
18. B26  0.55
19. B3  0.56
20. B10  0.64
21. B20  0.67
22. B14  0.72
23. B2  0.75
24. B25  0.80
25. B24  1.30
26. B27  1.60

In the case of B4, the IC50 ratio is reported as “n.d. (The n.d. (=not detectable) indicates that the IC50 value of the mutant is 10 nM or more)”.
With B7 the IC50 ratio was “n.d. (The n.d. (=not detectable) indicates that the IC50 value of the mutant is 10 nM or more)”.
B9 was tested, and the IC50 ratio was “n.d. (The n.d. (=not detectable) indicates that the IC50 value of the mutant is 10 nM or more)”.
